Reference: publication PMC5345230, “Disruption of TWIST1-RELA binding by mutation and competitive inhibition to validate the TWIST1 WR domain as a therapeutic target” (BMC Cancer, 2017)
Positions count from the first letter of the chain named. Names and notes keep the numbering of the source.

B1: TWIST1 E193A (natural protein, human, UniProt Q15672 1-202, looked up)
chain: MMQDVSSSPVSPADDSLSNSEEEPDRQQPPSGKRGGRKRRSSRRSAGGGAGPGGAAGGGVGGGDEPGSPAQGKRGKKSAGCGGGGGAGGGGGSSSGGGSPQSYEELQTQRVMANVRERQRTQSLNEAFAALRKIIPTLPSDKLSKIQTLKLAARYIDFLYQVLQSDELDSKMASCSYVAHERLSYAFSVWRMAGAWSMSASH
B2: TWIST1 R191A (natural protein, human, UniProt Q15672 1-202, looked up)
chain: B1 chain with R191A, A193E
B3: TWIST1 W190A (natural protein, human, UniProt Q15672 1-202, looked up)
chain: B1 chain with W190A, A193E

Target: RELA (wild type), NF-kB subunit p65 (UniProt Q04206 1-551)
Sequence (Q04206 whole entry): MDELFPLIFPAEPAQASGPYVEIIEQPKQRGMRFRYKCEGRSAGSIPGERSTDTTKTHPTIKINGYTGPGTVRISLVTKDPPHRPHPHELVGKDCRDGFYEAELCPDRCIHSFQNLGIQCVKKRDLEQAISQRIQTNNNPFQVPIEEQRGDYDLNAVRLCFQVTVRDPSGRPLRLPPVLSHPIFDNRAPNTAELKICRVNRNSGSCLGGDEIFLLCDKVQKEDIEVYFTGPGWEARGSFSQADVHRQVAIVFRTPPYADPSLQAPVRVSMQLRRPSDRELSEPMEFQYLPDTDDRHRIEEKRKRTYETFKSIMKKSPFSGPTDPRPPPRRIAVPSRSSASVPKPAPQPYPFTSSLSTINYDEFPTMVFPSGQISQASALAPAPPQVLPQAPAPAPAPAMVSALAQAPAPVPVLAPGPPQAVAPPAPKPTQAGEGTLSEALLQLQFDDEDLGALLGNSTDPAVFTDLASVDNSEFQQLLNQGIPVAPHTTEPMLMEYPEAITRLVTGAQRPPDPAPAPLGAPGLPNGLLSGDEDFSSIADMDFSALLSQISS
Assay: cell-based or functional assay

Row | Binder | IL-8 promoter driven firefly luciferase (dual luciferase assay) in Ovcar4 cells, reduction against wild type TWIST1 [%]
1 | B1 | 50
2 | B2 | 50
3 | B3 | 50
